Tested on: Escherichia coli TOP10
Assay: shrunken log2 fold change of peptide-encoding DNA abundance (4.5 h post-induction vs induction); higher = less antimicrobial activity (less host growth inhibition)
Settings: time post-induction: 4.5 h; library: site-saturation at positions 5, 18, 19, 20
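Note: peptides expressed intracellularly from a pBAD plasmid library in pooled LB shake-flask culture, induced with 0.3% L-arabinose, DNA abundance read by NGS, three biological replicates, DESeq2 with apeglm shrinkage.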

| Sequence | shrunken log2 fold change |
| --- | --- |
| RRIRVRPPRLPRPRPRPRWYPRP | -0.232 |
| RRIRVRPPRLPRPRPRPRYAPRP | -0.000525 |
| RRIRVRPPRLPRPRPRPSALPRP | -0.0271 |
| RRIRVRPPRLPRPRPRPSCPPRP | -0.245 |
| RRIRVRPPRLPRPRPRPSDLPRP | -0.196 |
| RRIRVRPPRLPRPRPRPSDVPRP | -0.184 |
| RRIRVRPPRLPRPRPRPSDWPRP | -0.102 |
| RRIRVRPPRLPRPRPRPSFSPRP | -0.498 |
| RRIRVRPPRLPRPRPRPSFYPRP | -0.872 |
| RRIRVRPPRLPRPRPRPSGSPRP | -0.0176 |
| RRIRVRPPRLPRPRPRPSLDPRP | -0.0324 |
| RRIRVRPPRLPRPRPRPSLPPRP | -0.226 |
| RRIRVRPPRLPRPRPRPSMCPRP | -0.528 |
| RRIRVRPPRLPRPRPRPSMHPRP | -0.177 |
| RRIRVRPPRLPRPRPRPSMYPRP | 0.531 |
| RRIRVRPPRLPRPRPRPSQGPRP | -0.371 |
| RRIRVRPPRLPRPRPRPSTMPRP | -0.213 |
| RRIRVRPPRLPRPRPRPSYAPRP | -0.477 |
| RRIRVRPPRLPRPRPRPTAEPRP | 0.0994 |
| RRIRVRPPRLPRPRPRPTAWPRP | 0.145 |
| RRIRVRPPRLPRPRPRPTDGPRP | 0.0478 |
| RRIRVRPPRLPRPRPRPTDKPRP | -0.0288 |

| Sequence | shrunken log2 fold change |
| --- | --- |
| RRIRVRPPRLPRPRPRPTEPPRP | 0.128 |
| RRIRVRPPRLPRPRPRPTERPRP | 0.302 |
| RRIRVRPPRLPRPRPRPTETPRP | 0.0324 |
| RRIRVRPPRLPRPRPRPTFLPRP | -0.0973 |
| RRIRVRPPRLPRPRPRPTFRPRP | 0.218 |
| RRIRVRPPRLPRPRPRPTGEPRP | 0.187 |
| RRIRVRPPRLPRPRPRPTGMPRP | 0.0943 |
| RRIRVRPPRLPRPRPRPTHFPRP | -0.266 |
| RRIRVRPPRLPRPRPRPTHIPRP | 0.268 |
| RRIRVRPPRLPRPRPRPTHPPRP | 0.378 |
| RRIRVRPPRLPRPRPRPTIGPRP | 0.178 |
| RRIRVRPPRLPRPRPRPTKYPRP | -0.523 |
| RRIRVRPPRLPRPRPRPTLAPRP | 0.797 |
| RRIRVRPPRLPRPRPRPTLKPRP | 0.151 |
| RRIRVRPPRLPRPRPRPTMTPRP | 0.11 |
| RRIRVRPPRLPRPRPRPTNLPRP | 0.0684 |
| RRIRVRPPRLPRPRPRPTPAPRP | 0.448 |
| RRIRVRPPRLPRPRPRPTPTPRP | 0.349 |
| RRIRVRPPRLPRPRPRPTRAPRP | 0.665 |
| RRIRVRPPRLPRPRPRPTRLPRP | 0.568 |
| RRIRVRPPRLPRPRPRPTSFPRP | -0.0728 |
| RRIRVRPPRLPRPRPRPTVLPRP | -0.0891 |

| Sequence | shrunken log2 fold change |
| --- | --- |
| RRIRVRPPRLPRPRPRPTVYPRP | -0.0885 |
| RRIRVRPPRLPRPRPRPTYFPRP | -0.0832 |
| RRIRVRPPRLPRPRPRPTYQPRP | -0.388 |
| RRIRVRPPRLPRPRPRPVCLPRP | 0.619 |
| RRIRVRPPRLPRPRPRPVEPPRP | 0.218 |
| RRIRVRPPRLPRPRPRPVFKPRP | -0.196 |
| RRIRVRPPRLPRPRPRPVGVPRP | 0.321 |
| RRIRVRPPRLPRPRPRPVMGPRP | 0.216 |
| RRIRVRPPRLPRPRPRPVMHPRP | -0.0179 |
| RRIRVRPPRLPRPRPRPVNLPRP | -0.322 |
| RRIRVRPPRLPRPRPRPVNNPRP | -0.39 |
| RRIRVRPPRLPRPRPRPVPIPRP | -0.0742 |
| RRIRVRPPRLPRPRPRPVRGPRP | 0.767 |
| RRIRVRPPRLPRPRPRPVRMPRP | -0.0731 |
| RRIRVRPPRLPRPRPRPVRWPRP | 0.805 |
| RRIRVRPPRLPRPRPRPVSDPRP | -0.0859 |
| RRIRVRPPRLPRPRPRPVSFPRP | -0.126 |
| RRIRVRPPRLPRPRPRPVSLPRP | 0.106 |
| RRIRVRPPRLPRPRPRPVTLPRP | -0.227 |
| RRIRVRPPRLPRPRPRPVTWPRP | -0.14 |
| RRIRVRPPRLPRPRPRPVVRPRP | 0.129 |
| RRIRVRPPRLPRPRPRPVWFPRP | -0.0288 |

| Sequence | shrunken log2 fold change |
| --- | --- |
| RRIRVRPPRLPRPRPRPVYEPRP | -0.127 |
| RRIRVRPPRLPRPRPRPWAEPRP | -0.0172 |
| RRIRVRPPRLPRPRPRPWDYPRP | -0.0898 |
| RRIRVRPPRLPRPRPRPWGCPRP | 0.076 |
| RRIRVRPPRLPRPRPRPWHEPRP | -0.127 |
| RRIRVRPPRLPRPRPRPWHPPRP | -0.0956 |
| RRIRVRPPRLPRPRPRPWLSPRP | -0.0434 |
| RRIRVRPPRLPRPRPRPWMYPRP | -0.225 |
| RRIRVRPPRLPRPRPRPWNQPRP | 0.0232 |
| RRIRVRPPRLPRPRPRPWPIPRP | -0.0661 |
| RRIRVRPPRLPRPRPRPWPWPRP | 0.197 |
| RRIRVRPPRLPRPRPRPWQCPRP | -0.00264 |
| RRIRVRPPRLPRPRPRPWRGPRP | 0.378 |
| RRIRVRPPRLPRPRPRPWRPPRP | 0.328 |
| RRIRVRPPRLPRPRPRPWTHPRP | -0.104 |
| RRIRVRPPRLPRPRPRPWTVPRP | -0.782 |
| RRIRVRPPRLPRPRPRPWVMPRP | -0.212 |
| RRIRVRPPRLPRPRPRPWWDPRP | 0.00445 |
| RRIRVRPPRLPRPRPRPWWLPRP | -0.0366 |
| RRIRVRPPRLPRPRPRPWYKPRP | -0.252 |
| RRIRVRPPRLPRPRPRPYALPRP | -0.848 |
| RRIRVRPPRLPRPRPRPYCLPRP | -0.564 |

| Sequence | shrunken log2 fold change |
| --- | --- |
| RRIRVRPPRLPRPRPRPYDSPRP | -0.126 |
| RRIRVRPPRLPRPRPRPYGNPRP | -0.0775 |
| RRIRVRPPRLPRPRPRPYHKPRP | -0.0829 |
| RRIRVRPPRLPRPRPRPYHLPRP | -0.184 |
| RRIRVRPPRLPRPRPRPYIQPRP | -0.472 |
| RRIRVRPPRLPRPRPRPYKMPRP | -0.428 |
| RRIRVRPPRLPRPRPRPYLPPRP | -0.453 |
| RRIRVRPPRLPRPRPRPYLRPRP | -0.165 |
| RRIRVRPPRLPRPRPRPYMKPRP | -1.04 |
| RRIRVRPPRLPRPRPRPYMPPRP | -0.78 |
| RRIRVRPPRLPRPRPRPYMRPRP | 0.162 |
| RRIRVRPPRLPRPRPRPYNVPRP | -0.0185 |
| RRIRVRPPRLPRPRPRPYSRPRP | -0.0134 |
| RRIRVRPPRLPRPRPRPYSTPRP | -0.00968 |
| RRIRVRPPRLPRPRPRPYVYPRP | -0.0156 |
| RRIRVRPPRLPRPRPRPYWAPRP | -0.0239 |
| RRIRWRPPRLPRPRPRPAAFPRP | 0.334 |
| RRIRWRPPRLPRPRPRPAATPRP | 2.26 |
| RRIRWRPPRLPRPRPRPACAPRP | 0.766 |
| RRIRWRPPRLPRPRPRPACDPRP | 0.788 |
| RRIRWRPPRLPRPRPRPACNPRP | -0.144 |
